From the supplement of paper PMC9732359 come the findings set out here.

The data set in a line: protein stability index of a GFP-peptide fusion (yeast GPS) (PSI 1-4); higher = more stable; sorted into four equal gates, so the index is relative within each strain. Summed up:
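Yeast carrying a pooled library were grown to mid-log phase in leucine-free medium. Each library plasmid expresses Cherry and has a tiled 17-residue yeast protein peptide fused downstream of GFP. Cells were sorted into four equal gates by GFP/Cherry ratio, and plasmids from each gate were PCR-amplified, Illumina-sequenced and assigned to strains by barcode. Summing, across gates, the read frequency times the gate number gave each peptide's protein stability index.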

± gives the uncertainty stated by the source.

As for NLANEQPVLEKPLKKGS [SIR4], the protein stability index runs as follows: (doa10∆) 2.31 ± 0.18; (pdr5∆) 2.83 ± 0.093; (san1∆) 3.08 ± 0.13; (ubr1∆) 2.32 ± 0.089.

The sequence LKKSEEIINNKTSSQTS [YMR153W/NUP53] gave a protein stability index (doa10∆) of 3.08 ± 0.12, a protein stability index (pdr5∆) of 3.4 ± 0.15, a protein stability index (san1∆) of 3.03 ± 0.13 and a protein stability index (ubr1∆) of 3.19 ± 0.069.

For DEVYVQNSKFLKVNVTL [YJL039C/NUP192], the protein stability index came out at 2.68 ± 0.064 (doa10∆), 2.78 ± 0.054 (pdr5∆), 2.76 ± 0.06 (san1∆) and 2.45 ± 0.039 (ubr1∆).

DITFFGEALPNKFHKSI [SIR2]: the protein stability index is, setting by setting: (doa10∆) 3 ± 0.11; (pdr5∆) 2.98 ± 0.1; (san1∆) 2.61 ± 0.082; (ubr1∆) 2.64 ± 0.054.

In turn, VLVLRGTLEGHNGWVTS [ASC1] yielded a protein stability index (doa10∆) of 2.75 ± 0.15, a protein stability index (pdr5∆) of 2.1 ± 0.14, a protein stability index (san1∆) of 2.1 ± 0.15 and a protein stability index (ubr1∆) of 2.76 ± 0.18.

Consider NIQKKQPAKEKGVTEKD [RRP6], for which the protein stability index worked out at 3.12 ± 0.1 (doa10∆), 3.17 ± 0.045 (pdr5∆), 3.11 ± 0.051 (san1∆) and 3.28 ± 0.047 (ubr1∆).

Turning to TSTITKYKQLLLKDDTY [RPN3], the protein stability index is, setting by setting: (doa10∆) 2.71 ± 0.12; (pdr5∆) 2.73 ± 0.15; (san1∆) 2.89 ± 0.073; (ubr1∆) 2.9 ± 0.084.

Turning to RKILNFKKDLVIVLSNI [SWI1], the protein stability index reads like this: (doa10∆) 2.52 ± 0.1; (pdr5∆) 2.25 ± 0.07; (san1∆) 2.11 ± 0.14; (ubr1∆) 2.71 ± 0.087.

In the case of MSISLESSKALADSLDR [DIS3], the protein stability index is, setting by setting: (doa10∆) 2.53 ± 0.067; (pdr5∆) 2.8 ± 0.074; (san1∆) 2.52 ± 0.096; (ubr1∆) 2.45 ± 0.071.

Turning to PIEVDEELLQLFLNNFV [IRR1], the protein stability index by setting is: (doa10∆) 2.93 ± 0.063; (pdr5∆) 2.86 ± 0.071; (san1∆) 2.97 ± 0.054; (ubr1∆) 3.18 ± 0.058.

KVTCSSNSSSSPPIIDL [MED1]: the protein stability index (doa10∆) stood at 2.53 ± 0.044, the protein stability index (pdr5∆) stood at 2.76 ± 0.044, the protein stability index (san1∆) came out at 2.87 ± 0.032 and the protein stability index (ubr1∆) stood at 2.74 ± 0.033.

With HAADSQNNKPSFVFGQA [YLR335W/NUP2], the protein stability index is 2.91 ± 0.11 (doa10∆), 2.95 ± 0.092 (pdr5∆), 2.58 ± 0.057 (san1∆) and 3.15 ± 0.093 (ubr1∆).

Sequence KLVTNVVDPKTSIEKSS [YML103C/NUP188] displayed a protein stability index (doa10∆) of 2.31 ± 0.056, a protein stability index (pdr5∆) of 2.71 ± 0.049, a protein stability index (san1∆) of 2.52 ± 0.069 and a protein stability index (ubr1∆) of 2.62 ± 0.051.

Turning to EFIRCGCLIKNLPRTKA [RMP1], the protein stability index reads like this: (doa10∆) 2.17 ± 0.087; (pdr5∆) 2.82 ± 0.1; (san1∆) 2.3 ± 0.11; (ubr1∆) 2.53 ± 0.077.

Turning to NQVTDSSQLNKLTDEQS [SIR3], the protein stability index was found to be 2.71 ± 0.063 (doa10∆), 2.74 ± 0.069 (pdr5∆), 2.82 ± 0.07 (san1∆) and 2.68 ± 0.072 (ubr1∆).

TAGVGSTPNFGGNSNKS [SIN4]: the protein stability index by setting is: (doa10∆) 3.73 ± 0.2; (pdr5∆) 3.31 ± 0.21; (san1∆) 3.39 ± 0.078; (ubr1∆) 3.36 ± 0.061.

For QPQALQKSGRPVKSIRA [RPO21], the protein stability index worked out at 2.62 ± 0.065 (doa10∆), 2.29 ± 0.069 (pdr5∆), 2.36 ± 0.083 (san1∆) and 2.17 ± 0.037 (ubr1∆).

Turning to LEHIDSKSEFAHRIMLT [FAS2], the protein stability index turned out to be 2.17 ± 0.063 (doa10∆), 2.19 ± 0.069 (pdr5∆), 2.72 ± 0.075 (san1∆) and 2.25 ± 0.063 (ubr1∆).

The sequence TGLHFGRLSLRSLTAYA [QCR10] returned a protein stability index (doa10∆) of 1.22 ± 0.044, a protein stability index (pdr5∆) of 1.5 ± 0.059, a protein stability index (san1∆) of 1.39 ± 0.095 and a protein stability index (ubr1∆) of 1.65 ± 0.055.

As to IFSLLTGYPDEPPAGVA [CYT1], the protein stability index (doa10∆) came to 2.87 ± 0.18, the protein stability index (pdr5∆) was determined as 2.52 ± 0.14, the protein stability index (san1∆) was determined as 2.4 ± 0.13 and the protein stability index (ubr1∆) came out at 2.54 ± 0.09.

Consider GQLVELYVPRKCSATNR [RPS21A], for which the protein stability index runs as follows: (doa10∆) 2.46 ± 0.2; (pdr5∆) 1.32 ± 0.19; (san1∆) 1.13 ± 0.22; (ubr1∆) 1.38 ± 0.069.

Consider NKNIDIGLLNKSKSSLD [RPN2], for which the protein stability index reads like this: (doa10∆) 2.37 ± 0.071; (pdr5∆) 2.22 ± 0.097; (san1∆) 1.76 ± 0.096; (ubr1∆) 1.92 ± 0.05.

For VKDKEEDHIFFKYIYEL [YDL116W/NUP84], the protein stability index was determined as 1.34 ± 0.07 (doa10∆), 1.09 ± 0.093 (pdr5∆), 1.16 ± 0.16 (san1∆) and 1.06 ± 0.076 (ubr1∆).

As to TNWARTTFRNEYGKHDF [MED8], the protein stability index (doa10∆) was determined as 2.82 ± 0.097, the protein stability index (pdr5∆) was 2.56 ± 0.079, the protein stability index (san1∆) stood at 2.91 ± 0.088 and the protein stability index (ubr1∆) was 3.55 ± 0.19.
